Reference: patent US20220324943A1 (UNIVERSITY OF FLORIDA RESEARCH FOUNDATION, published 2022)
One block for each binder: values may come before it.

Legend:
[1] = molecular target: T1, amyloid beta peptide (Aβ) (UniProt P05067 672-713); test: ELISA on plates coated with Aβ42 peptide, detection with anti-FLAG M2 HRP ('Ab9 scFv activity, Aβ42 ELISA')
T1 construct: also called Aβ9; Aβ9 ligand
Experimental: An ELISA-based assay was performed to assess Aβ9 scFv activity. 96-well plates were coated with Aβ42 peptide, and 293T conditioned media (containing the GBA-CCD and GBA-CCD-Aβ9 scFv proteins) and cell lysate were then added and incubated for 6 hours. ELISA was developed with anti-FLAG M2 HRP. (See FIG. 23.)

acidic FGF = molecular target: T2, acidic FGF (UniProt P05230 16-155, limits assumed); test: SPR, FGFR1-CCD injected over immobilized ligand
T2 construct: also called acidic FGF ligand
T2 sequence (P05230 16-155 limits assumed): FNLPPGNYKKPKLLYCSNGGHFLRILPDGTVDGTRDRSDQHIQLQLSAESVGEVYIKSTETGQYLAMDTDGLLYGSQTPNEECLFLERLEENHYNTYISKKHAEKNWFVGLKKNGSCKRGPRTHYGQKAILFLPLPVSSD
Experimental: Using a surface plasmon resonance (SPR) technique, the binding kinetics of FGFR1 was measured with two ligands, basic FGF and acidic FGF. A null FGFR1 ligand, vascular endothelial growth factor A (VEGFA), was used as a control. In SPR experiments, the binding of a molecule in the soluble phase (e.g. the peptide of the fusion protein) to a ligand molecule immobilized on a sensor surface is directly measured as a reflected light signal (SPR signal) in a biosensor device. The sensor device may contain an LED-emitting near infrared light, a glass prism fixed to a sensor microchip, and a position-sensitive diode array detector. Binding events cause changes in the refractive index at the surface layer, which are detected as changes in the SPR signal. Specifically, a signal arises when incident LED light is totally internally reflected from the metal-coated interface between two media of different refractive indices (the glass prism and solution). When the incident light is focused on the surface in a wedge, the drop in intensity at the resonance angle appears as a “shadow” in the reflected light wedge, which is detected by the detector. […]
This sensorgram consists of two phases: (Left) In the association phase, the FGFR1-CCD was injected over immobilized ligands on the surface. […] Binding kinetics, including the value of KD, the dissociation constant, can be calculated from the sensorgram.

T1 sequence (P05067 672-713): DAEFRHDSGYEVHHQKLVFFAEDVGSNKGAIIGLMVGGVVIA

- binding result [1]: binds
B1: GBA_AB9 (scFv)
fusion protein monomer: ARPCIPKSFGYSSVVCVCNATYCDSFDPPTFPALGTFSRYESTRSGRRMELSMGPIQANHTGTGLLLTLQPEQKFQKVKGFGGAMTDAAALNILALSPPAQNLLLKSYFSEEGIGYNIIRVPMASCDFSIRTYTYADTPDDFQLHNFSLPEEDTKLKIPLIHRALQLAQRPVSLLASPWTSPTWLKTNGAVNGKGSLKGQPGDIYHQTWARYFVKFLDAYAEHKLQFWAVTAENEPSAGLLSGYPFQCLGFTPEHQRDFIARDLGPTLANSTHHNVRLLMLDDQRLLLPHWAKVVLTDPEAAKYVHGIAVHWYLDFLAPAKATLGETHRLFPNTMLFASEACVGSKFWEQSVRLGSWDRGMQYSHSIITNLLYHVVGWTDWNLALNPEGGPNWVRNFVDSPIIVDITKDTFYKQPMFYHLGHFSKFIPEGSQRVGLVASQKNDLDAVALMHPDGSAVVVVLNRSSKDVPLTIKDPAVGFLETISPGYSIHTYLWRRQLKEFMGYQGPPGPPGPPGIPGNHGNNGNNGATGHEGAKGEKGDKGDLGPRGERGQHGPKGEKGYPGIPGYCGPPGPPGPPGIPGNHGNNGNNGATGHEGAKGEKGDKGDLGPRGERGQHGPKGEKGYPGIPDYKDDDDKLQISGGGGSGGGGSQVTLKESGPGILQPSQTLSLTCSFSGFSLNTFGMGVSWIRQPSGKGLEWLAHIFWDDDKHYNPSLKSRLTISKDTSNNQVFLKITTVDTADTATYYCVRYGFDGFPYWGQGTLVTVSAGGGGSGGGGSGGGGSDVVMTQTPLSLPVSLGDQASISCRSNQSLVHSNGNTYLHWYLQKPGQSPKLLIYKVSNRFSGVPDRFSGSGSGTDFTLKISRVEAEDLGFYFCSQSTRVPWTFGGGTKLELKRAAAHHHHHHV
notes: fusion of glucocerebrosidase, CCD and Aβ9 scFv; tested as conditioned media and as protein purified from media and lysate; also called hGBA-CCD-Aβ9 scFv; GBA-CCD-antiAβ9 scFv fusion protein

- Kd (acidic FGF): < 1 pM
B2: FGFR1-CCD fusion protein (receptor)
chain: RPSPTLPEQAQPWGAPVEVESFLVHPGDLLQLRCRLRDDVQSINWLRDGVQLAESNRTRITGEEVEVQDSVPADSGLYACVTSSPSGSDTTYFSVNVSDALPSSEDDDDDDDSSSEEKETDNTKPNPVAPYWTSPEKMEKKLHAVPAAKTVKFKCPSSGTPNPTLRWLKNGKEFKPDHRIGGYKVRYATGSIIMDSVVPSDKGNYTCIVENEYGSINHTYQLDVVERSPHRPILQAGLPANKTVALGSNVEFMCKVYSDPQPHIQWLKHIEVNGSKIGPDNLPYVQILKTAGVNTTDKEMEVLHLRNVSFEDAGEYTCLAGNSIGLSHHSAWLTVLEALEERPAVMLKEFMGYQGPPGPPGPPGIPGNHGNNGNNGATGHEGAKGEKGDKGDLGPRGERGQHGPKGEKGYPGIPGYCGPPGPPGPPGIPGNHGNNGNNGATGHEGAKGEKGDKGDLGPRGERGQHGPKGEKGYPGIPDYKDDDDKLQISSTVAAAHHHHHHV
notes: CCD fusions are said to form multimers (trimers, hexamers); It was expressed in cells, isolated and purified; also called Fibroblast growth factor receptor 1 (hsFGFR1) CCD fusion
